assay: soluble on expression in E. coli; label from the status in PepcDB or PDB records

| Sequence | soluble on expression in E. coli |
| --- | --- |
| MSLTNTTKIVFLGASSASFGLSMFRDLFASPVLAGSTLTLVGRNPETLGRMTELAKLMNARSGAGLIIEQTTDRRAALDGAGFVINATAIDRNRLWKQDFEVPKKHGIRHTLGENGGPGGLFFTLRTLPLVFDFIRDIEELCPTALFLNYSNPESRIILALGRYTKVRHIGLCHGIFMGRDAVAYIMQMPREEIEVWGAGLNHFQCLTEIRHRDTGEDLYPRFRAAEQSFDPDAWRFTRRLYRAFGYWLTCSDDHLGEYLPYGWEAGEKGYDFDQDERWRGEFLTQLNGVLGGTMPIPQWWTEPSGERGAAVIAAMLHNQKRFIESGIVINRGVIPNLPAELAVEVPVTVDAAGVHPVSLGPLPDPIAKLMLMQASVQQLAVEAAVHASKELALQALLIDPVVNSAVAAEKILDELWEINRPYIRKEGHHHHHH | not soluble |
| GPGSMRSAQLPSKLSSAAGSCKHWVVSVPNSSESYRCFCSLIDRALQPGTCHPYSVRFRLEHLLPADWSLLLGWCRRLTSCGGSFTYTSPGDISEQTESVGAVDDSEGHPAVVNAAFMHVVERCHGDFVPNNMIYHELQRRYTVYAPASPPPPEGPEDFTSFLGALQDSVCDGCLASLSEGDGNVGEDPLASQVPSLEATKHNQKVLGVGAAASMESEAHRQQGELLFNFFPHRVVVSDGIPCHSTHFVVMVNLKPVVPWHLMVVPIRCVGTLSALSAAEMEDLGHMIHLTISVLSHVLVKPAVTGTGDTSSNGGSRVERGCSPHSIGSPVPASVVGGGGFSIAIQQGELAGQTVPHLHVHVIPFDPRGKLAGEPEDEEQQRRQPPRTGAQMRKETEFLRPHFVRLANEKNMRGICATCG | not soluble |
| MGSTGETQITPTHISDEEANLFAMQLASASVLPMILKSALELDLLEIIAKAGPGAQISPIEIASQLPTTNPDAPVMLDRMLRLLACYIILTCSVRTQQDGKVQRLYGLATVAKYLVKNEDGVSISALNLMNQDKVLMESWYHLKDAVLDGGIPFNKAYGMTAFEYHGTDPRFNKVFNKGMSDHSTITMKKILETYTGFEGLKSLVDVGGGTGAVINTIVSKYPTIKGINFDLPHVIEDAPSYPGVEHVGGDMFVSIPKADAVFMKWICHDWSDEHCLKFLKNCYEALPDNGKVIVAECILPVAPDSSLATKGVVHIDVIMLAHNPGGKERTQKEFEDLAKGAGFQGFKVHCNAFNTYIMEFLKKV | soluble |
| SLTDSAAPRLHVQALSADCAEAARRWAERLGLPLEADDEAEFAVQVGEQGLQVLQLGADSPGPVRVDFVEGASAHRRKFGGGSGQMIAKAVGVQPGIRPRVLDATAGLGQDGFVLASLGCEVTLVERQPLIAALLEDGLERARRDPDVAPIAARMRLLGGNSADLMRAWDGEAPQVIYLDPMFPHRDKSALVKKEMRLFRPLVGDDLDAPALLQAALALASHRVVVKRPRKAPIIEGPKPGYSLEGKSSRYDIYPKKALGK | soluble |
| MNTLGRFLRLTTFGESHGDVIGGVLDGMPSGIKIDYALLENEMKRRQGGRNVFITPRKEDDKVEITSGVFEDFSTGTPIGFLIHNQRARSKDYDNIKNLFRPSHADFTYFHKYGIRDFRGGGRSSARESAIRVAAGAFAKMLLREIGIVCESGIIEIGGIKAKNYDFNHALKSEIFALDEEQEEAQKTAIQNAIKNHDSIGGVALIRARSIKTNQKLPIGLGQGLYAKLDAKIAEAMMGLNGVKAVEIGKGVESSLLKGSEYNDLMDQKGFLSNRSGGVLGGMSNGEEIIVRVHFKPTPSIFQPQRTIDINGNECECLLKGRHDPCIAIRGSVVCESLLALVLADMVLLNLTSKIEYLKTIYNEN | soluble |
| MAKNKVLGRGLADIFPEINEVYEQGLYERANRVVELGIDEVMPNPYQPRKVFSEDSLEELAQSIKEHGLLQPVLVVSENGRYHLIAGERRLRASKLAKMPTIKAIVVDIEQEKMREVALIENIQREDLNPLELARSYKELLESYQMTQEELSKIVKKSRAHVANIMRLLTLSSKVQNALLEEKITSGHAKVLVGLDGEKQELILNSIIGQKLSVRQTEDLARDFKINANFDNKKHGFKQTQTLIAGDELERLNQSLWDHYKLKAALKGNKIVLRCYENSLLEAFMKKMMS | not soluble |
| QIQLVQSGPELKKPGETVRISCKASDYSFMTSGMQWVQQMPGKGLKWIGWLNTQSGVPEYAEDFKGRFAFSLETSATTAYLQINNLKNEDTATYFCATWGGNSAYWGQGTTLTVSSAKTTPPSVYPLAPGSAAQTNSMVTLGCLVKGYFPEPVTVTWNSGSLSSGVHTFPAVLQSDLYTLSSSVTVPSSTWPSETVTCNVAHPASSTKVDKKIVPRDC | soluble |
| MNNIWWQTKGQGNVHLVLLHGWGLNAEVWRCIDEELSSHFTLHLVDLPGFGRSRGFGALSLADMAEAVLQQAPDKAIWLGWSLGGLVASQIALTHPERVQALVTVASSPCFSARDEWPGIKPDVLAGFQQQLSDDFQRTVERFLALQTMGTETARQDARALKKTVLALPMPEVDVLNGGLEILKTVDLRQPLQNVSMPFLRLYGYLDGLVPRKVVPMLDKLWPHSESYIFAKAAHAPFISHPAEFCHLLVALKQRV | soluble |
| MTAANLTEQQRLELEAAAFRTLVHHLQTRKDVQNIDLMNLAGFCRNCLSKWYKAAADDLGVEVSNDQAREEIYGMPYAEWKAKYQKEASPEQQAAFAKSQGNA | not soluble |
| MSLGHELYLVGGSVRDALLGRLSPDLDFTTDARPERVQEIVRPWADAVWDTGIEFGTVGVGKSDHRMEITTFRADSYDRVSRHPEVRFGDCLEGDLVRRDFTTNAMAVRVTATGPGEFLDPLGGLAALRAKVLDTPAAPSGSFGDDPLRMLRAARFVSQLGFAVAPRVRAAIEEMAPQLARISAERVAAELDKLLVGEDPAAGIDLMVQSGMGAVVLPEIGGMRMAIDEGHHHHHH | not soluble |
| GAMAFDWDAYLEETGSEAAPAKCFKQAQNPPNNDFKIGMKLEALDPRNVTSTCIATVVGVLGSRLRLRLDGSDSQNDFWRLVDSTEIHAIGHCEKNGGMLQPPLGFCMNASSWPGYLCKILNNAMVAPEEIFQPEPPEPEENLFKVGQKLEAVDKKNPQLICCATVDAIKDDQIHVTFDGWRGAFDYWCNYRSRDIFPAGWCARSCHPMQPPGHKSRMDSSSSKQRCPRPRYTVVAESEAMVPASPATAHFHPNCKGGPFINNSK | soluble |
| GSAASSALKGLIQQFTTITGASESVGKHMLEACNNNLEMAVTMFLDGGG | soluble |
| MGNIKVTRDDWLNVAMDVLVSDGVEQVKVMNLAERMAVSRSSFYWYFKSRQDLLDALLAKWQATNTAGLIAQTELPAQTITGAVCNLFHCVVDPALFDTALDFAVRDWARRSGKVRRLLDLSDSRRLEALTAMFLRYDYSQIEAETRARVLYYMQIGYDLAQMNEPIDQRLSFVRHYLFVFTGVQARDEEVAAFSAFARGFWEGRRP | not soluble |
| MHIKIDDLTGRQVVSLVNEHLHSMTLMSPPESIHALGLEKLRGPEITFWSAWEGDELAGCGALKELDTRHGEIKSMRTSASHLRKGVAKQVLQHIIEEAEKRGYERLSLETGSMASFEPARKLYESFGFQYCEPFADYGEDPNSVFMTKKLLEHHHHHH | soluble |
| MQELKDKIKKLGYEEIKDIDDATFIASHKNVYVYVKKVDEEQLKPELVTAITYEAMATDPISTYAWITNGTSNAYVLVEEEKAVSEIPSVFEDENKLYSGKRQLTDRDKWSIRKYQELQEKFDGLHEMIYGMKDHVNNSNDVIDEFSKLIFLETFRLYHPEYRLTKGNVTGKLFNEIYRYEYVEKHKDKAVQEIREAFKEIKDHADYVAILDNGEKANIFSADEYIKLENPNIYIAVLKALQDLGTIIIDGVERPATLRDLTGDVLGRVFDVLLRGKFENKGGMGIYLTPRQVTEAAAEMVLHDLTKDGAAKLIAKDPKTGIPTLRIGDLCCGSGGFLIKMLQKIEHYLLNKLTGDKKQYEELFEQMKEHCFIGADNAPGMVLKARINMALHGAPKCPIFQTRNSLMNTRLKPGTFDAILTNPPFSKTGISKTIKKGKTTVENPEGAEIIKYYSSDIDEDGQNRMSPYGLSLGSKPDSRGKWKEVNSVDPAVLFIDRNLQLLKPGGLLMIVVPDGILSNSGDKYVREYIMGKKNPVTGEFEGGKAILKAVISLPQVTFALSGAGAKTSLLYLKKKEHPGEKQGPVFMAVADEVGFTVKQNVEVQLGDDHNDLLKIVEAYKKGMPEDVE | not soluble |
| MKVILVNGSPHKDGCTFTALEEVAKALNEEGIDTEFFHLGTKPLNGCIACGHCRKHQRCVFPDSVNEFLDLAQEADGFIFGSPVHYAAAGGAITSFLDRVFYTDSGSGKQAFYLKPAAAVVSARRAGTTASLDQLNRYFTIKEMPIISSKYWNMVHGNTPEEVRKDEEGLQIMRTLGRNMAWFLKCKEAGIRAGIPFPSQEEGLRTNFIRLEHHHHHH | soluble |
| MAFALWYSLQERAPVVERSLKVPLQVVGLGEGRRALGLPREVLLRLRGPAPLLEGRALPVSAYLDLSGAEGEVVREVRVAAPQGVEVLEVVPARVGVVVEVEAQRQIPVEVLAQGAWVLTDPAFVEAVGPESQVEAAVSAVGLDLGDEVVLFPFGPEGPLEGVELRPNRVRVVERREALFLKEVPLSLKPPPGRRLLDYAPKTVRLVGPREALEGLAGVAATLQEALGPGEVEVAVAPDLPPGVQTLGPVRVRVALE | soluble |
| MAHHHHHHMLNVVQATRMSKKQEVKAYGPNVKKGDLVYGVVHIFASFNDTFVHVTDMSGRETYVKVTGGMKVKADRDESSPYAAMMAAQDVVARCKECGINALHVKMRAVGGVRTKSPGPGRPGRPPRARPRRDEDWPHRGCHPDPDRLHPPQGFPPWSPPVRSLRPRVLRTAQQSELTLVTICWFPCVCDLLSFYCREEKKHRPQITEAR | not soluble |
| MAHHHHHHMHDRIFAFAQQKVGLTAEQAECLSRKYWLNYGLSLYGYVKEYNVDAKEYSDFVHQCSYDKLHYNKPLIDMLLIMQYAPEAARGHDGPRSTNIDHLYYFTNANHSHARNVLDAQGLRPIFTRPRPVGLPVKENHPASEQAGAEDQVEWLGFSYEDQWQLTHPEIANKPMRQAYEAIYKAIEDQVAEDAALVATTTTAGSGSAFASSSASRNSDIAEEVKNKRARLRPENFVMVDDSLMNIDAPLELGWSAVWYAHDTQELPTDVKDNASAPLYAAAVASGRLQVIRNILELRAAVERIREVNSRSASS | not soluble |
| MGSDKIHHHHHHMRSNNNNPLTRDEILSRYFPQYRPAVATSQGLSGGSCIIAHDTHRVVLRRHHDPDAPPAHFLRHYRALSQLPASLAPRALFYTPGWMAVEYLHGVVNSALPDADELAALLYHLHQQPRFGWRIALSPLLAQYWSCCDPARRTPFWLRRLKQLQKNGEPRPLRLAPLHMDVHGDNIVLTSAGLRLIDWEYAGDGDIALELAAVWVEDERQHRQLADAYAARARIDARQLWRQIRLWHPWVIMLKAGWFEYRWRQTGEQQFIRLADETWRQLRMKG | not soluble |
| SKGRPQIDSSKATDKINPMDFTFVEINEAVKLVEMGVATPQDIDTAIKLGLNRPFGPFELAKQFGAEQIAKRLEELAKQFGKKIFEPAKTLKEGKLEELLKAGKAE | soluble |
| HDYLMKGNLSRLVPAIERELREADERRRRRQAEEAMHAQFNQISTIFDSLNALVYVVDMNSYELLYLNKFGAQLFGEAWEGRTCHDVLHGGRSTPCDFCTNDKLIMDGKALPPYIWEYQNSISSRWYQCIDKAIRWTD | not soluble |
